T1: mouse CACNG1 on myofibers of wildtype mice (mouse, UniProt O70578 1-223)
T1 construct: whole, on cells; Target inferred from the cells: the wildtype myofibers carry mouse CACNG1, which the CACNG1^Hu/Hu mice have replaced by human CACNG1; also called wildtype (WT) myofibers
T1 sequence (looked up): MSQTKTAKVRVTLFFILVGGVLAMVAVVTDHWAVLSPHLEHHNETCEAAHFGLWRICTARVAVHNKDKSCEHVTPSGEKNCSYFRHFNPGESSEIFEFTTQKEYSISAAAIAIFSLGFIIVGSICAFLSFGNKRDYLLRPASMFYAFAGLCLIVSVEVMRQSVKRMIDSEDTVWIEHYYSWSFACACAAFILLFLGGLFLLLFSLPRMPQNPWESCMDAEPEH

B1: REGN5972-M3004 (antibody, V domains shown)
VH: QVQLVESGGGVVQPGRSLRLSCTASGFTFRSYGMHWVRQAPGKGLEWVSVIWIDGNNIYYADSVKGRFTISRDNSKNTLYLQMDSLRAEDTAVYYCARRLAITSAAPFDYWGQGTLVTVSS
VL: not shown
modifications: N180Q in the constant region (heading of the 2nd table, row 736); linker-payload M3004 (VC-PAB linker, DHT)
B2: H4H31265P2/REGN5972 (antibody, V domains shown)
VH: B1 VH
VL: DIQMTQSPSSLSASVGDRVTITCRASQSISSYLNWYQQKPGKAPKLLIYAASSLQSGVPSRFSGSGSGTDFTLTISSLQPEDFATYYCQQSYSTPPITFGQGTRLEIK
notes: also called antibody designation 7

What was measured:
[1] = biological target: T2, human CACNG1, cell surface-expressed (human, UniProt Q06432 1-222); assay: cell-based or functional assay
[2] = biological target: T2, human CACNG1, cell surface-expressed; assay: cell-based or functional assay; remark: listed apart in the source
[3] = biological target: T2, human CACNG1, cell surface-expressed; assay: cell-based or functional assay; remark: listed apart in the source
[4] = biological target: T1, mouse CACNG1 on myofibers of wildtype …; assay: immunofluorescence on live single myofibers ex vivo (wildtype mice), fluorescent secondary antibody, confocal imaging
Procedure: Single myofibers were isolated from either wildtype mice, mice that were homozygous for the deletion of CACNG1 (referred to as CACNG1 knockout mice), or mice that were homozygous for the expression of human CACNG1 in place of mouse CACNG1 (referred to as CACNG1^{Hu/Hu}). The gastrocnemius muscle was removed, collagenase digested, and single myofibers were isolated, washed, and incubated overnight at 37° C. at 5% C02, in DMEM+10% horse serum. […] Myofibers were then washed twice in DMEM+10% horse serum, and subsequently incubated with 10 ug/mL of fluorescent-conjugated secondary antibodies for 30 minutes, washed twice in DMEM+10% horse serum, and then fixed with 4% paraformaldehyde (PFA) for 15 minutes at room temperature. Single fibers were then washed twice with PBS, stained with Hoechst for 5 minutes, washed once more with PBS, then transferred to microscope slides, coverslipped, and imaged using a Zeiss LSM 710 confocal microscope.

[5] = biological target: T3, nanodisc embedded human CACNG1 expressed with a C-terminal PADRE-Flag-His tag (human, UniProt Q06432 1-222); assay: SPR (Biacore T200), 25 C, anti-His-captured human CACNG1 nanodisc, antibody as analyte
T3 construct: Membrane protein (gamma-1 subunit of the skeletal muscle L-type calcium channel) in a nanodisc; also called human CACNG1 nanodisc; CACNG1 nanodisc; not shown: C-terminal PADRE-Flag-His tag
Procedure: Equilibrium dissociation constants (KD values) for nanodisc embedded human CACNG1 expressed with a C-terminal PADRE-Flag-His tag (human CACNG1 nanodisc) binding to purified anti-hCACNG1 antibodies were determined using a real-time surface plasmon resonance biosensor technology with a Biacore T200 instrument. The CM5 Biacore sensor surface was derivatized by amine coupling with a monoclonal mouse anti-His antibody (Cytiva; Marlborough, MA). All Biacore binding studies were performed in a buffer composed of 0.01M HEPES, 0.15M NaCl, 1 mM CaCl₂), 0.5 mM MgCl₂, pH 7.4 (HBS-N++ running buffer). Different concentrations of anti-hCACNG1 antibodies (ranging from 300 nM to 12 nM in 5-fold serial dilutions) prepared in HBS-N++ running buffer were injected over the captured human CACNG1 nanodisc at a flow rate of 30 μL/minute. Antibody association was monitored for 2 minutes while dissociation was monitored in HBS-N++ running buffer for 5 minutes. At the end of each cycle, the human CACNG1 nanodisc capture surface was regenerated using three 10 second injections of 10 mM Gly pH1.5. All binding kinetics experiments were performed at 25° C.

T2 sequence (Q06432 whole entry): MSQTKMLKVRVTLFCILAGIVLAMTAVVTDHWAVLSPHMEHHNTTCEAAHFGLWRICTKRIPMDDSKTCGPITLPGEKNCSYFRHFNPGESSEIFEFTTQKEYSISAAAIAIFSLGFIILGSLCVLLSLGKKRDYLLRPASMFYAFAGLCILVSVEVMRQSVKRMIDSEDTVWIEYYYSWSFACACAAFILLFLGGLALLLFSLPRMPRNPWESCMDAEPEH
T3 sequence (Q06432 whole entry): as above

Row | Binder | EC50; androgen receptor luciferase reporter (RLU), hCACNG1.AR.Luc LNCaP cells, 72 hours [1] | EC50; androgen receptor luciferase reporter (RLU), hCACNG1.AR.Luc LNCaP cells, 48 hours [2] | EC50; androgen receptor luciferase reporter (RLU), hCACNG1.AR.Luc LNCaP cells, 24 hours [3] | binding result [4] | mAb Bound at 300 nM (RU) [5]
1 | B1 | 7.79 nM | 6.49 nM | 19 nM |  | 
2 | B2 |  |  |  | no binding (tested: 100 nM) | 14 RU
